Source: patent US12559559B2, “Targeting Galectin-9 as a therapeutic strategy for T-cell exhaustion in T-cell acute lymphoblastic leukemia” (DANA-FARBER CANCER INSTITUTE, INC., priority 2019, dated 2026)

Target: T1, Galectin-9 (LGALS9) (Homo sapiens, UniProt O00182)
T1 construct: cultured from normal donors with and without T-ALL supernatant (containing LGALS9) for three days; endogenous in cells; host or cells: DND-41 T-ALL cell line (culture supernatant)
Experiment: T-cell exhaustion functional assay / HAVCR2-LGALS9 pathway blocking in activated CD8+ T-cells (qRT-PCR)
Type: cell-based
Conditions: recombinant Galectin-9 2.5 μg/mL added to the culture, 72 hours
Protocol: HAVCR2 mRNA expression in activated CD8+ T-cells cultured with T-ALL supernatant (from DND-41 cells; orange) or control media (blue), in the presence/absence of anti-human Galectin-9 (10 μg/mL) or recombinant Galectin-9 (2.5 μg/mL). n.s. P>0.05, **P≤0.01 and ***P≤0.001, based on 3 technical replicates, using two-sided t-test.
T-cells were isolated using Easy Sep Human T-cell Enrichment kit (StemCell Technologies), activated and expanded with Dynabeads Human T-activator CD3/CD28 (ThermoFisher Scientific) in X-VIVO 15 (Lonza) with 5% of human AB serum, and 50 U/mL IL-2 (Miltenyi Biotech). For T-cell exhaustion functional assays, activated CD8′ T-cells were cultured in X-VIVO 15 media or in supernatant media of DND-41 cell line, with 50 U/mL IL-2. For HAVCR2-LSGAL9 pathway blocking experiments, activated CD8^+ T-cells were cultured in X-VIVO 15 media or in supernatant media of DND-41 T-ALL supplemented with anti-human Galectin-9 10 μg/mL (Thermo Fisher Scientific) or recombinant Galectin-9 2.5 μg/mL (R&D systems) for 72 hours.
RNA was isolated using RNeasy Mini Kit (Qiagen), followed by reverse transcription with SuperScript III Reverse Transcriptase (ThermoFisher Scientific). Gene expression was quantified by quantitative real-time PCR using Power SYBR Green PCR Master Mix (Applied Biosystems, Vial instrument). […]

T1 sequence (O00182 whole entry): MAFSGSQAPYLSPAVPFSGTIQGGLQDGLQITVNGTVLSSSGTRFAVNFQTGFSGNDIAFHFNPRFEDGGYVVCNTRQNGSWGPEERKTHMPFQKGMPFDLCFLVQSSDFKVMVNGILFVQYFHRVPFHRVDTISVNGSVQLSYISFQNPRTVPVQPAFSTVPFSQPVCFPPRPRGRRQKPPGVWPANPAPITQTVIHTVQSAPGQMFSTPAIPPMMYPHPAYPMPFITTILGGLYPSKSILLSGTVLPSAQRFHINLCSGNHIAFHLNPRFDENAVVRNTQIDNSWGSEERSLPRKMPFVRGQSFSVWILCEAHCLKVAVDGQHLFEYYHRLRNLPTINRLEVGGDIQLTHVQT

Exhaustion marker expression in activated CD8+ T-cells: upregulation of exhaustion markers
B1: recombinant soluble LGALS9: recombinant Galectin-9 (R&D systems), used at 2.5 μg/mL (protein)
chain: MAFSGSQAPYLSPAVPFSGTIQGGLQDGLQITVNGTVLSSSGTRFAVNFQTGFSGNDIAFHFNPRFEDGGYVVCNTRQNGSWGPEERKTHMPFQKGMPFDLCFLVQSSDFKVMVNGILFVQYFHRVPFHRVDTISVNGSVQLSYISFQNPRTVPVQPAFSTVPFSQPVCFPPRPRGRRQKTQTVIHTVQSAPGQMFSTPAIPPMMYPHPAYPMPFITTILGGLYPSKSILLSGTVLPSAQRFHINLCSGNHIAFHLNPRFDENAVVRNTQIDNSWGSEERSLPRKMPFVRGQSFSVWILCEAHCLKVAVDGQHLFEYYHRLRNLPTINRLEVGGDIQLTHVQT
